In article PMC3961337 (2014):

T1: zinc-binding anti-sigma (ZAS) protein RsrA (S. coelicolor M145, UniProt Q7AKG8 1-105)
T1 chain: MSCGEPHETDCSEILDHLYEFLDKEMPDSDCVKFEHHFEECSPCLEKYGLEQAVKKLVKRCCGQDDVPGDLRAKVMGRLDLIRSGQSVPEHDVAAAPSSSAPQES

T2: rsrA-cfp-pET28a (+) protein (RCP) (S. coelicolor M145, UniProt Q7AKG8 1-105)
T2 chain: T1 chain

B1: sigma factor σ^R (natural protein)
chain: not shown
modifications: biotinylated before capture on streptavidin biosensor tips
B2: sigR-yfp-pET28a (+) protein (SYP) (natural protein)
chain: not shown
modifications: biotinylated for the biolayer interferometry only

How the values were obtained:
[1] = target: T1, zinc-binding anti-sigma (ZAS) protein …; assay: BLI
[2] = target: T2, rsrA-cfp-pET28a (+) protein (RCP); assay: BLI

Binder	Kd [1] [nM]	Kd [2] [nM]
B1	47	72
B2	52	–
